This is an account of results in article PMC3916239, “Distinct DNA Binding Sites Contribute to the TCF Transcriptional Switch in C. elegans and Drosophila”.

Numbering of substitutions follows the chain as printed.

Series [1] addresses T1, POP-1 (Caenorhabditis elegans, UniProt Q10666 1-438).
T1 sequence: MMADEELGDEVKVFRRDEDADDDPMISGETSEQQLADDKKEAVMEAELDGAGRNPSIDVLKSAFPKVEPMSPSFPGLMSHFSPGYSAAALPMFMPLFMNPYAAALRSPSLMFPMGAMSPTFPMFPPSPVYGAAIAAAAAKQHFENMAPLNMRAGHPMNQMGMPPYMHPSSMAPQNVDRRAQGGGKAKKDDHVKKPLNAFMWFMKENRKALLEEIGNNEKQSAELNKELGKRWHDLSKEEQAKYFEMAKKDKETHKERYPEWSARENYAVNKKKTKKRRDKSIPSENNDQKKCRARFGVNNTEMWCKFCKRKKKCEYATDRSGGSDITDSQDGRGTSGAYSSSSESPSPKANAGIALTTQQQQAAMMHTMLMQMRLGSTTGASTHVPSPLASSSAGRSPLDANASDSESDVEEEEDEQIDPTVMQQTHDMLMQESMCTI
Description: EMSA; 10 mM Tris-HCl pH 7.5, 50 mM KCl, 1 mM DTT, 5 mM MgCl2, 0.05% NP-40, 50 ug/ml poly(dI-dC), glycerol; 20 ul; 5 min on ice then 25 min room temperature; 6% native gel. Conditions: protein: recombinant, tags: 6xHis.

Series [2] addresses T1, POP-1. The series can be described thus: competition; no competition at 200-fold excess; 10 mM Tris-HCl pH 7.5, 50 mM KCl, 1 mM DTT, 5 mM MgCl2, 0.05% NP-40, 50 ug/ml poly(dI-dC), glycerol; 20 ul; 5 min on ice then 25 min room temperature; 6% native gel. To be noted: protein: recombinant; tags: 6xHis.

B1: ceh-22b WRE WT probe 69 bp (dsDNA)
DNA 1: TACGAGAAGCGGCGATTCAAGAGTTTCAAATAACTTCTCCACCGCCTTTTGAAGTTGCCGAAAATAGTT
DNA 2: AACTATTTTCGGCAACTTCAAAAGGCGGTGGAGAAGTTATTTGAAACTCTTGAATCGCCGCTTCTCGTA
Regarding B1, the binding result in the series with POP-1 [1] (label: biotin (labeled probe)) was “binds”.

B2: psa-3 WRE WT probe 47 bp (dsDNA)
DNA 1: ACCGTTATGGCCGTGGAGGCTCTTTTGATGTGCAGCCGACAAGTACG
DNA 2: CGTACTTGTCGGCTGCACATCAAAAGAGCCTCCACGGCCATAACGGT
B2: the binding result in the series with POP-1 [1] (label: biotin (labeled probe)) is “binds”.

B3: Y66D12A.9 probe (dsDNA)
DNA 1: TTGGCGCCGAGCACATATTTCCCATCGGAAGCTTTGAAATAGTCGAGCCCGCGGCCACTT
DNA 2: AAGTGGCCGCGGGCTCGACTATTTCAAAGCTTCCGATGGGAAATATGTGCTCGGCGCCAA
In the case of B3, in the series with POP-1 [1] (label: biotin), the binding result is “no binding”.

B4: K08D12.3 long WT probe (dsDNA)
DNA 1: CTGGCACGCGGCCAACATTCGATTTTGGGACGATCGACACGTTCTGGCCACATTTTCTTTGATTTTTTCTGATTTCGCCGACTTTTTTC
DNA 2: GAAAAAAGTCGGCGAAATCAGAAAAAATCAAAGAAAATGTGGCCAGAACGTGTCGATCGTCCCAAAATCGAATGTTGGCCGCGTGCCAG
For B4, the binding result in the series with POP-1 [1] (label: biotin (labeled probe)) is reported as “binds”.

B5: K08D12.3 HMG mutant (dsDNA)
DNA 1: B4 DNA 1 with T59G, A62C, T63G
DNA 2: B4 DNA 2 with A27C, T28G, A31C
Consider B5, for which the binding result in the series with POP-1 [2] is recorded as “no binding”.

B6: K08D12.3 Helper3 mutant (dsDNA)
DNA 1: B4 DNA 1 with G77T, C78A, C79A, G80T, A81C, C82A, T83G
DNA 2: B4 DNA 2 with A7C, G8T, T9G, C10A, G11T, G12T, C13A
On to B6, for which the binding result with POP-1 [2] is on record as “no binding”.

B7: R05G6.5 probe (dsDNA)
DNA 1: CGGTCGCCGCGCCAATGTGCTTGCCTTTGAACTCTCAATTTGCTGTTGTGGCGTGAT
DNA 2: ATCACGCCACAACAGCAAATTGAGAGTTCAAAGGCAAGCACATTGGCGCGGCGACCG
As for B7, in the series with POP-1 [1] (label: biotin), the binding result was “no binding”.
